Data reported in publication PMC8726653, “TNF-induced necroptosis initiates early autophagy events via RIPK3-dependent AMPK activation, but inhibits late autophagy” (Autophagy, 2021).

Target: T1, His-AMPK [His-HsPRKAA1 (11–559) + HsPRKAB2 (1–272) + HsPRKAG1 (1–331)] (human, UniProt Q13131 11-559; O43741 1-272; P54619 1-331)
T1 construct: also called DU32489; source: obtained: MRC PPU Reagents and Services, University of Dundee (DU32489); copies: + +
Assay: pull-down; 4 µg GST-MmRIPK3 (or GST) on glutathione-Sepharose beads incubated with 1 µg His-AMPK overnight at 4°C in 0.5% Nonidet P-40 buffer (50 mM Tris pH 8.0, 100 mM NaCl, 6 mM EDTA, 6 mM EGTA, 1 mM DTT); blot for AMPK and GST
Conditions: both partners purified

T1 sequence (Q13131 11-559, chain 1 of 3): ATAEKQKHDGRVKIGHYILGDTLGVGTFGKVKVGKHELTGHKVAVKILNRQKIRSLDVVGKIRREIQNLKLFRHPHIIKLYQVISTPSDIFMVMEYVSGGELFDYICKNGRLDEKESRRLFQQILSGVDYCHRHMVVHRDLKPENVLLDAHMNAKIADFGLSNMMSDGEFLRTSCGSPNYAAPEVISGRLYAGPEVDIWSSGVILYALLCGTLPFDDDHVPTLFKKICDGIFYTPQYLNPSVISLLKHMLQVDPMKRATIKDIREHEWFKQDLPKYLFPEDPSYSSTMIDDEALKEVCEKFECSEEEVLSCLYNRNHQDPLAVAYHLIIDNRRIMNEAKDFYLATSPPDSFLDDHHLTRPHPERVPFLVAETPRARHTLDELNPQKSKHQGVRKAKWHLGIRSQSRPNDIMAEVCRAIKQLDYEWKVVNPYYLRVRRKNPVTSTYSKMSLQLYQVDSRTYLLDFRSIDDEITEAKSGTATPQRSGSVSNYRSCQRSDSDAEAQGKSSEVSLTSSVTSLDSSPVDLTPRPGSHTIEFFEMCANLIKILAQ
T1 sequence (O43741 whole entry, chain 2 of 3): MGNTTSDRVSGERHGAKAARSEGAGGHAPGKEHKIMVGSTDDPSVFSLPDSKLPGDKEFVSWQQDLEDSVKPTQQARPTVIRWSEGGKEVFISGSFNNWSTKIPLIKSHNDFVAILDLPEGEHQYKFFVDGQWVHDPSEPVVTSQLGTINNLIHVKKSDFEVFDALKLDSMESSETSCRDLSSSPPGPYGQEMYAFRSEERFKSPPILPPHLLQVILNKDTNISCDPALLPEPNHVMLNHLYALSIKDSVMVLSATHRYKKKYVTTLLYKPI
T1 sequence (P54619 whole entry, chain 3 of 3): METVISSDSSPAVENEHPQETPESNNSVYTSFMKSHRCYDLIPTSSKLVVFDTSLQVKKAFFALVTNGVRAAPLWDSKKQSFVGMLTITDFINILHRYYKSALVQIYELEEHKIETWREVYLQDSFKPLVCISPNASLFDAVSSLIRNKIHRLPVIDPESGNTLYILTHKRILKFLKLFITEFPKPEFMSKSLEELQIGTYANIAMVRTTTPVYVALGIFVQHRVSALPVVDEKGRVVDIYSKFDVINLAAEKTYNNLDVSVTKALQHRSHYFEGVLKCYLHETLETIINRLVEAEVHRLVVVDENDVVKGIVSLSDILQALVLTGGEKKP

binding result: binds
B1: GST-MmRIPK3 (enzyme, mouse, UniProt Q9QZL0 1-486, looked up)
chain: MSSVKLWPTGASAVPLVSREELKKLEFVGKGGFGVVFRAHHRTWNHDVAVKIVNSKKISWEVKAMVNLRNENVLLLLGVTEDLQWDFVSGQALVTRFMENGSLAGLLQPECPRPWPLLCRLLQEVVLGMCYLHSLNPPLLHRDLKPSNILLDPELHAKLADFGLSTFQGGSQSGSGSGSGSRDSGGTLAYLDPELLFDVNLKASKASDVYSFGILVWAVLAGREAELVDKTSLIRETVCDRQSRPPLTELPPGSPETPGLEKLKELMIHCWGSQSENRPSFQDCEPKTNEVYNLVKDKVDAAVSEVKHYLSQHRSSGRNLSAREPSQRGTEMDCPRETMVSKMLDRLHLEEPSGPVPGKCPERQAQDTSVGPATPARTSSDPVAGTPQIPHTLPFRGTTPGPVFTETPGPHPQRNQGDGRHGTPWYPWTPPNPMTGPPALVFNNCSEVQIGNYNSLVAPPRTTASSSAKYDQAQFGRGRGWQPFHK
notes: cDNA amplified from pBOB-FLAG-MmRIPK3 and inserted into pGEX-5X-3; also called recombinant RIPK3; source: E. coli BL21 (DE3), purified on glutathione sepharose 4B beads
